Reference: patent US5849890

Target: human chorionic gonadotropin (hCG) heterodimer (Homo sapiens) (UniProt P01215+P0DN86)
Assay: filter
Settings: 2'-F all pyrimidines (RNA transcript of template)

human chorionic gonadotropin (hCG) heterodimer (Homo sapiens), sequence (P01215 25-116, chain 1 of 2, other chains not shown): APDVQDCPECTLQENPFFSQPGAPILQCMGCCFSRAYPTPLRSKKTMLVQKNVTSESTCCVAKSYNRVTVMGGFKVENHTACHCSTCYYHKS

Sequence	Kd (estimate, <1% bound at up to 80 uM) [µM]	binding (up to 40 uM hCG) [% bound]
GGGAGACAAGAAUAAACGCUCAANNNNNNNNNNNNNNNNNNNNNNNNNNNNNNNNNNNNNNNNUUCGACAGGAGGCUCACAACAGGC [2'-F random 40N8 pool]	> 800	–
GGGAGGACGAUGCGGNNNNNNNNNNNNNUUGAACGAUCCUUNNNNNNNNNNNNNCAGACGACUCGCCCGA [CG2N7 unselected pool]	–	< 1
